Reference: the supplement of paper PMC9732359
± gives the uncertainty stated by the source.

Test: protein stability index of a GFP-peptide fusion (yeast GPS) (PSI 1-4); higher = more stable; sorted into four equal gates, so the index is relative within each strain
Method in brief: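 The protein stability index combines read frequencies across sorting gates, each weighted by its gate number and then summed. To obtain those frequencies, a pooled yeast library of GFP fusions to tiled 17-residue yeast protein peptides, on a plasmid also expressing Cherry, was grown to mid-log phase in leucine-free medium. The cells were sorted into four equal gates by GFP/Cherry ratio before plasmid amplification by PCR and Illumina sequencing.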

Sequence | protein stability index (doa10∆) | protein stability index (pdr5∆) | protein stability index (san1∆) | protein stability index (ubr1∆)
KNKGLVVSPYDYNHKRV [DIB1] | 3.18 ± 0.12 | 3.19 ± 0.11 | 3.02 ± 0.14 | 3.35 ± 0.17
RDVELSSDELKVIEEQL [SMC4] | 3.27 ± 0.058 | 3.25 ± 0.072 | 2.94 ± 0.054 | 3.26 ± 0.055
NLCKIIEPFECVEISHI [RPN6] | 2.27 ± 0.12 | 2.09 ± 0.2 | 1.97 ± 0.11 | –
ESPNYCNALIHIKFSAG [SRB4] | 1.66 ± 0.042 | 1.83 ± 0.039 | 1.93 ± 0.069 | 2.04 ± 0.034
NKLNFIVDDKQEMIDIL [DIB1] | 3.37 ± 0.099 | 3.01 ± 0.17 | 2.9 ± 0.15 | 3 ± 0.12
NRSEQNGQEQQGPVKNT [RGR1] | 3.26 ± 0.16 | 3.39 ± 0.14 | 3.11 ± 0.11 | 3.55 ± 0.22
KFMELERKTLERQQENL [SWI3] | 2.76 ± 0.17 | 3.23 ± 0.1 | 3.06 ± 0.09 | 3.12 ± 0.071
LFLNNFVSRIPIMFQDF [IRR1] | 1.97 ± 0.057 | 2.04 ± 0.048 | 1.7 ± 0.067 | 1.85 ± 0.033
RRMAFKPFGSAKSDETK [YLR335W/NUP2] | 2.75 ± 0.073 | 2.74 ± 0.063 | 2.88 ± 0.058 | 2.08 ± 0.054
EGEYELTEAVEDGPRPF [RPL5] | – | 3.31 ± 0.17 | 3.38 ± 0.066 | –
LDNLTEDPNSAAFDEVE [DIS3] | 3.19 ± 0.085 | 3.3 ± 0.072 | 3.22 ± 0.041 | 3.12 ± 0.043
IPVYCFSHPAHQQRMSR [YCG1] | 1.88 ± 0.037 | 2.04 ± 0.044 | 1.93 ± 0.046 | 2.04 ± 0.037
GLDQSRIPFSERKLKFS [FAS1] | 1.81 ± 0.061 | 1.29 ± 0.059 | 1.11 ± 0.085 | 1.12 ± 0.048
FKSPIDNSESHPFIPLL [RRP6] | 1.95 ± 0.07 | 2.23 ± 0.053 | 2.03 ± 0.075 | 1.82 ± 0.052
GIKAKHDKNIQKLLKQL [ISW2] | 2.41 ± 0.048 | 2.45 ± 0.048 | 2.45 ± 0.051 | 2.79 ± 0.033
RPLKLERGFACIPLVGI [FAS1] | 1.69 ± 0.067 | 1.73 ± 0.048 | 1.51 ± 0.092 | 1.69 ± 0.048
SIFAMGLCGAGTNNARL [RPN1] | 2.44 ± 0.058 | 1.27 ± 0.043 | 1.24 ± 0.094 | 1.12 ± 0.039
LHRLTPKNVKGEEDADE [RPN1] | 3.65 ± 0.26 | – | – | –
LTLMEKAAFEDLKSKGL [FAS1] | 3.03 ± 0.078 | 3.29 ± 0.088 | 3.2 ± 0.054 | 3.26 ± 0.052
MATIASEYSSEASNTPI [PRE7] | 2.53 ± 0.094 | 2.76 ± 0.14 | 2.83 ± 0.08 | 2.93 ± 0.13
VENGTTSIGIKCNDGVV [PRE10] | 2.14 ± 0.11 | 2.1 ± 0.089 | 1.35 ± 0.21 | 3.31 ± 0.22
NWLSIFNDFSNIKTSEW [REC8] | 2.67 ± 0.082 | 2.95 ± 0.061 | 2.94 ± 0.091 | 2.91 ± 0.085
VGDIVDIKANGSIQKGM [RPL21A] | 2.35 ± 0.072 | 1.9 ± 0.065 | 1.62 ± 0.089 | 2.19 ± 0.047
SQVVWIRRLRVLRRLLA [RPL19A] | 1.22 ± 0.054 | 1.46 ± 0.049 | 1.44 ± 0.12 | 1.29 ± 0.053
LRLFINEEGDWSCIVVE [ITC1] | 2.74 ± 0.088 | 2.62 ± 0.083 | 3.07 ± 0.083 | 3.19 ± 0.1
EDFLHFIVAEYIQQKKV [SRB4] | 2.57 ± 0.1 | 2.79 ± 0.078 | 2.28 ± 0.1 | 2.9 ± 0.067
LTGSPNNPLVQKKNFLF [ARP7] | 2.9 ± 0.092 | 2.89 ± 0.1 | 2.27 ± 0.16 | 3.18 ± 0.066

Sequence | protein stability index (doa10∆) | protein stability index (pdr5∆) | protein stability index (san1∆) | protein stability index (ubr1∆)
VKGLLNTYKRLVIGIFK [YJL039C/NUP192] | 2.53 ± 0.061 | 2.46 ± 0.051 | 1.5 ± 0.11 | 2.2 ± 0.04
DYAQLDHLVSSIPMGGQ [ARP9] | 2.1 ± 0.065 | 2.36 ± 0.071 | 2.36 ± 0.067 | 2.15 ± 0.053
QVPQVRSMSGQPPTNVQ [SNF5] | 2.81 ± 0.05 | 3.03 ± 0.042 | 3.06 ± 0.037 | 2.95 ± 0.035
GDQFLRYVNLLGVTYSS [PRE4] | 2.27 ± 0.1 | 2.33 ± 0.062 | 2.1 ± 0.075 | 2.02 ± 0.042
EQEDIIEKTESVDKKVD [SWI3] | 3.04 ± 0.07 | 3.02 ± 0.081 | 3.14 ± 0.041 | 2.99 ± 0.094
PEDALVNDFSDITSDQL [SMC3] | 3.32 ± 0.076 | 2.85 ± 0.091 | 3.15 ± 0.081 | 3.31 ± 0.062
YRNNEPAGFTHKLSNWL [YDL088C/ASM4] | 2.49 ± 0.072 | 3.04 ± 0.058 | 2.7 ± 0.06 | 2.82 ± 0.039
LLREKQRVRNMRELGLI [YOR098C/NUP1] | 1.19 ± 0.19 | 1.14 ± 0.13 | – | 1.13 ± 0.19
LFAESHDVLQKLNTLSE [YML103C/NUP188] | 2.77 ± 0.067 | 3.17 ± 0.072 | 3.06 ± 0.065 | 3 ± 0.05
AVPLQIVSPQSNKPCMG [RPO21] | 1.72 ± 0.059 | 1.71 ± 0.038 | 2.03 ± 0.065 | 1.78 ± 0.035
VKFYEIFNFDQLVEITE [SRB8] | 1.24 ± 0.11 | 1.35 ± 0.088 | 1.58 ± 0.14 | 1.37 ± 0.058
LYAITFRKGLGNPLLYD [QCR2] | 1.25 ± 0.17 | 1.32 ± 0.25 | – | –
GQSEASLLNLLNISPFT [RPP0] | 2.59 ± 0.066 | 2.1 ± 0.057 | 2.29 ± 0.085 | 2.66 ± 0.058
SNHNNLNLNNSELQPQN [SNF2] | 3.02 ± 0.044 | 2.7 ± 0.062 | 2.97 ± 0.051 | 2.81 ± 0.056
AAQDVWNRADNHFKDTY [FAS1] | 3.05 ± 0.18 | 3.14 ± 0.1 | 3.19 ± 0.11 | 3.53 ± 0.13
IHTQLSEIKQQINKAQI [YJL039C/NUP192] | 2.73 ± 0.12 | 2.8 ± 0.18 | 2.81 ± 0.13 | 3.12 ± 0.2
FNYQGDELVLNFENDNE [REC8] | 2.9 ± 0.18 | 3.25 ± 0.17 | 2.79 ± 0.11 | 2.63 ± 0.068
KNVRTRIKLATTSERVS [RRI1] | 2.6 ± 0.058 | 2.56 ± 0.058 | 2.8 ± 0.086 | 2.36 ± 0.074
NTKVPVDIVNQWFLQYQ [YML103C/NUP188] | 1.78 ± 0.044 | 2.15 ± 0.038 | 1.85 ± 0.058 | 2.18 ± 0.034
RIISGDQITKMKDRLVE [RPN9] | – | – | 3.34 ± 0.26 | 2.69 ± 0.19
VVKGLPDISRAVINIRD [RPO31] | 2.83 ± 0.083 | 2.23 ± 0.097 | 2.6 ± 0.23 | 2.47 ± 0.083
KLKQLLDESSEQKNTAK [YIL149C/MLP2] | 3.02 ± 0.11 | 3.22 ± 0.11 | 2.6 ± 0.17 | 2.99 ± 0.065
QQLDSFNQFVDYTLQDI [RPB2] | 2.48 ± 0.094 | 2.64 ± 0.1 | 2.75 ± 0.052 | 2.43 ± 0.086
QRDRHTLAYDRGHRIRR [PRP8] | 3.01 ± 0.1 | 3.21 ± 0.074 | 2.83 ± 0.095 | 2.87 ± 0.048
DEEMLTSCTIPKAVVDH [GAL11] | 2.94 ± 0.085 | 2.77 ± 0.076 | 2.44 ± 0.12 | 2.9 ± 0.076
KLSISNAASQQPTPRSA [GAL11] | 2.57 ± 0.083 | 2.61 ± 0.081 | 2.73 ± 0.058 | 2.91 ± 0.049
